Substitutions are numbered along the chain they refer to.
B1: 1.35.36-1 (antibody, human IgG1, kappa)
heavy: QVQLVQSGAEVKKPGASVRVSCKASGYNIRDYFMHWWRQAPGQGLQWVGWINPKTGQPNNPRQFQGRVTMTRHASWDFDTFSFYMDLSRLRSDDTATYFCARQRTDYWDFDVWGQGTMVTVSSASTKGPSVFPLAPSSKSTSGGTAALGCLVKDYFPEPVTVSWNSGALTSGVHTFPAVLQSSGLYSLSSVVTVPSSSLGTQTYICNVNHKPSNTKVDKKVEPKSCDKTHTCPPCPAPELLAGPDVFLFPPKPKDTLMISRTPEVTCVVVDVSHEDPEVKFNWYVDGVEVHNAKTKPREEQYNSTYRVVSVLTVLHQDWLNGKEYKCKVSNKALPLPEEKTISKAKGQPREPQVYTLPPSREEMTKNQVSLTCLVKGFYPSDIAVEWESNGQPENNYKTTPPVLDSDGSFFLYSKLTVDKSRWQQGNVFSCSVLHEALHSHYTQKSLSLSPGK
light: DIQMTQSPSSLSASVGDRVTITCQANGYLNWYQQKPGKAPKLLIYDGSNLETGVPSRFSGSRWGQEYTLTISSLQPEDIATYFCQVYEFVTPGTNLDIKRTVAAPSVFIFPPSDEQLKSGTASVVCLLNNFYPREAKVQWKVDNALQSGNSQESVTEQDSKDSTYSLSSTLTLSKADYEKHKVYACEVTHQGLSSPVTKSFNRGEC
B2: 1.36.36-1 (antibody, human IgG1, kappa)
heavy: B1 heavy with F83A
light: B1 light
B3: Antibody A-3 (antibody, human IgG1, kappa)
heavy: QVQLLQSGAAVTKPGASVRVSCEASGYNIRDYFIHWWRQAPGQGLQWVGWINPKTGQPNNPRQFQGRVSLTRHASWDFDTFSFYMDLKALRSDDTAVYFCARQRSDYWDFDVWGSGTQVTVSSASTKGPSVFPLAPSSKSTSGGTAALGCLVKDYFPEPVTVSWNSGALTSGVHTFPAVLQSSGLYSLSSVVTVPSSSLGTQTYICNVNHKPSNTKVDKKVEPKSCDKTHTCPPCPAPELLGGPDVFLFPPKPKDTLMISRTPEVTCVVVDVSHEDPEVKFNWYVDGVEVHNAKTKPREEQYNSTYRVVSVLTVLHQDWLNGKEYKCKVSNKALPAPEEKTISKAKGQPREPQVYTLPPSREEMTKNQVSLTCLVKGFYPSDIAVEWESNGQPENNYKTTPPVLDSDGSFFLYSKLTVDKSRWQQGNVFSCSVLHEALHSHYTQKSLSLSPGK
light: DIQMTQSPSSLSASVGDTVTITCQANGYLNWYQQRRGKAPKLLIYDGSKLERGVPSRFSGRRWGQEYNLTINNLQPEDIATYFCQVYEFVVPGTRLDLKRTVAAPSVFIFPPSDEQLKSGTASVVCLLNNFYPREAKVQWKVDNALQSGNSQESVTEQDSKDSTYSLSSTLTLSKADYEKHKVYACEVTHQGLSSPVTKSFNRGEC
B4: Antibody A-4 (antibody, human IgG1, kappa)
heavy: B3 heavy with G242A
light: B3 light
B5: Antibody A-5 (antibody, human IgG1, kappa)
heavy: B3 heavy with A336L
light: B3 light
B6: 1.34.36-1 (antibody, human IgG1, kappa)
heavy: B1 heavy with M34I, M70L, S88K, R89A, T97V, Q115S, M118Q
light: B1 light
B7: Antibody A-2 (antibody, human IgG1, kappa)
heavy: B3 heavy with G242A, A336L, L434M, S440N
light: B3 light
B8: 1.33.36-1 (antibody, human IgG1, kappa)
heavy: B1 heavy with M34I, M70L, S88K, R89A, T105S, Q115S, M118Q
light: B1 light
B9: Antibody A-6 (antibody, human IgG1, kappa)
heavy: B3 heavy with D245S, F249L, R298P, Y306L, V311I, E338I, P402L
light: B3 light

Columns and labels:
BSA = BSA (UniProt P02769 25-607); test: single-point ELISA, BSA control
gp120 Bal = gp120 Bal (HIV (Bal)); test: single-point ELISA at EC50 conc. of A-1
gp120 SHIV SF162 P3 = gp120 SHIV SF162 P3 (SHIV SF162 P3); test: single-point ELISA at EC50 conc. of A-1
gp120 CAAN = gp120 CAAN (HIV (CAAN)); test: single-point ELISA at EC50 conc. of A-1
[1] = molecular target: HIV-1 envelope glycoprotein gp120 of viral isolate 92US712 (HIV-1); test: cell-based or functional assay
[2] = molecular target: HIV-1 envelope glycoprotein gp120 of viral isolate 92US657 (HIV-1); test: cell-based or functional assay

Row | Binder | ELISA A450 (BSA) | ELISA A450 (gp120 Bal) | ELISA A450 (gp120 SHIV SF162 P3) | ELISA A450 (gp120 CAAN) | ADCC EC50, NK Donor 1 [1] | ADCC EC50, NK Donor 2 [1] | ADCC EC50, NK Donor 3 [1] | ADCC Emax, NK Donor 1 [1] | ADCC Emax, NK Donor 2 [1] | ADCC Emax, NK Donor 3 [1] | ADCC EC50, NK Donor 1 [2] | ADCC EC50, NK Donor 2 [2] | ADCC EC50, NK Donor 3 [2] | ADCC Emax, NK Donor 1 [2] | ADCC Emax, NK Donor 2 [2] | ADCC Emax, NK Donor 3 [2]
1 | B1 | 0.06 A450 | 0.85 A450 | 0.56 A450 | 0.67 A450 | – | – | – | – | – | – | – | – | – | – | – | –
2 | B2 | 0.06 A450 | 1.12 A450 | 0.14 A450 | 0.34 A450 | – | – | – | – | – | – | – | – | – | – | – | –
3 | B3 | – | – | – | – | 0.07 µg/mL | 0.08 µg/mL | 0.2 µg/mL | 77% | 59% | 67% | 0.68 µg/mL | 0.67 µg/mL | 1.39 µg/mL | 49% | 49% | 56%
4 | B4 | – | – | – | – | 0.2 µg/mL | 0.13 µg/mL | 0.4 µg/mL | 78% | 61% | 64% | 0.6 µg/mL | 1.21 µg/mL | 1.64 µg/mL | 52% | 53% | 50%
5 | B5 | – | – | – | – | 0.19 µg/mL | 0.08 µg/mL | 0.09 µg/mL | 79% | 61% | 66% | 0.57 µg/mL | 0.83 µg/mL | 0.76 µg/mL | 58% | 61% | 61%
6 | B6 | 0.07 A450 | 0.94 A450 | 0.77 A450 | 0.71 A450 | – | – | – | – | – | – | – | – | – | – | – | –
7 | B7 | – | – | – | – | 0.18 µg/mL | 0.08 µg/mL | 0.2 µg/mL | 76% | 60% | 60% | 0.54 µg/mL | 0.81 µg/mL | 1.13 µg/mL | 59% | 51% | 56%
8 | B8 | 0.06 A450 | 0.94 A450 | 0.88 A450 | 0.82 A450 | – | – | – | – | – | – | – | – | – | – | – | –
9 | B9 | – | – | – | – | 0.27 µg/mL | 0.54 µg/mL | 0.18 µg/mL | 68% | 54% | 51% | 3.93 µg/mL | 1.21 µg/mL | 3.21 µg/mL | 54% | 53% | 52%
